Earlier results as cited in article PMC3325482.
pKd: −log10 of the molar value.

Target: Cd200R (Rattus norvegicus) (UniProt Q9ES58)
UniProt Q9ES58, sequence (Q9ES58 24-239): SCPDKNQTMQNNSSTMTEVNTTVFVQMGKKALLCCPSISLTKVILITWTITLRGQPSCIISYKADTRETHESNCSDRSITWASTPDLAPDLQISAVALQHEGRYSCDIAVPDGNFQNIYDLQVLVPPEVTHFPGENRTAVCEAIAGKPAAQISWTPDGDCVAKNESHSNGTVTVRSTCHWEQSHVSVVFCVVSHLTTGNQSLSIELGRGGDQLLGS

pKd: 5.70
Substance: Cd200 (from UniProt P04218)
